Experimental findings from article doi:10.1101/2023.01.10.523494 (bioRxiv, 2023) are described below.

Where a chain is given by its changes, count along the chain named.

In this assay the target is receptor binding domain (RBD) of the wildtype (WT) SARS-CoV-2 spike protein (SARS-CoV-2, wildtype (sequence as in …)).

B1: mRBD24 (antibody, V domains shown)
VH: EVQLQQSGPDLVKPGASVKISCKASGYTFTDYYMNWVKQSHGKSLEWIGDINPNNGGTYYNQKFKGKATLTVDKSSSTAYMELRSLTSEDSAVYYCARQLRRWGQGTLVTVSA
VL: not shown
In the case of B1, the binding result is “binds”.

B2: mRBD11 (antibody, V domains shown)
VH: QVQLQQSGAELARPGASVKLSCKASGYTFISNGISWVKQRTGQGLEWIGEIYPRNGNTYYNEKFKGKATLTADKSSSTAYMELRSLTSEDSAVFFCARDYYYGNFDYWGQGTTLTVSS
VL: NIVLTQSPASLAVSLGQRATISCRASESVDSYGNSFMHWYQQKPGQPPKLLIYLASNLESGVPARFSGSGSRTDFTLTIDPVEADDAATYYCQQNNEDPYTFGGGTKLEIK
Turning to B2, the binding result is “binds”.

B3: mRBD15 (antibody, V domains shown)
VH: QIQLVQSGPDLKKPGETVKISCKASGYTFTEYPMHWVKQAPGKGFQWMGMIYTDTGEPTYAEEFKGRFAFSLETSASTAYLQINNLKNEDTSTYFCVRAGPSYAMDYWGQGTSVTVSS
VL: B2 VL with L58V, Q93H, N95I
Consider B3, for which the binding result is recorded as “binds”.

B4: mRBD16 (antibody, V domains shown)
VH: B3 VH with D10E, F29L, Q46K, S92A, Y103F
VL: B2 VL
B4: the binding result is reported as “binds”.

B5: mRBD22 (antibody, V domains shown)
VH: QIQLVQSGPELKKPGETVKISCKASGYTFTEYPMHWVKQAPGKGFKWMGMIYTDTGEPTYAEEFKGRFAFSLETSASTAYLQINNLKNEDTATYFCVRGGYYYFDYWGQGTTLTVSS
VL: B2 VL with Y100W
On to B5, for which the binding result is given as “binds”.

B6: mRBD19 (antibody, V domains shown)
VH: B3 VH with D10E, Q46K, S92A, A99G, S102Y
VL: B2 VL with Y100W
Consider B6, for which the binding result is given as “binds”.

B7: mRBD20 (antibody, V domains shown)
VH: B3 VH with D10E, F29L, Q46K, S92A
VL: B2 VL with V13M, Q42L
In the case of B7, the binding result is recorded as “binds”.

B8: mRBD21 (antibody, V domains shown)
VH: B3 VH with D10E, E31K, Q46K, F68C, S92A, A99W, P101G, M105L
VL: B2 VL with N1D, L54R, V62I, D80N, A87V, N95S, Y100L, G104A, I110L
On to B8, for which the binding result is “binds”.

B9: mRBD3 (antibody, V domains shown)
VH: QVQLQQPGAELVMPGTSVKLSCKASGYIFTSYWMHWVKQRPGQGLEWIGEIDPSDNYTNYNQKFKGKSTLTVDKSSSTAYMQLSSLTSEDSAVYYCARGGLYYYGSSYDAMDYWGQGTSVTVSS
VL: DIVMTQAAPSVPVTPGESVSISCRSSKSLLHSNGNTYLYWFLQRPGQSPQLLIYRMSNLASGVPDRFSGSGSGTAFTLRISRVEAEDVGAYYCMQHLEYPFTFGSGTKLEIK
B9: the binding result is on record as “binds”.

B10: mRBD4 (antibody, V domains shown)
VH: QVQLQQPGAELVMPGASVKLSCKASGYTFTSYWMHWVKQRPGQGLEWIGEIDPSDSYTNYNQKFKDKSTLTVDKSSSTAYMQLSSLTSEDSAVYYCARGGVYYYGSSHYFDYWGQGTTLTVSS
VL: B9 VL with L51F, A90V
For the molecule B10, the binding result is “binds”.

B11: mRBD23 (antibody, V domains shown)
VH: QVQLQQPGAELVRPGSSVKLSCKASGYTFTSYWMHWVKQRPIQGLEWIGNIDPSDSETHYNQKFKDKATLTVDKSSSTAYMQLSSLTSEDSAVYYCTRPGSLRSRGWYFDVWGTGTTVTVSS
VL: B9 VL with A90V, F101Y, S105G
Turning to B11, the binding result was “binds”.

B12: hRBD1 (antibody, V domains shown)
VH: QVQLVQSGSELKKPGASVKVSCKASGNTLTNHALNWVRQAPGQGLEWMGWINTNTGIPTYAQGFTGRFVFSLDTSVSTAYLQISSLKAEDTAVYYCARVGQTAIAALDDAFDIWGQGTMVTVSS
VL: not shown
On to B12, for which the binding result was “binds”.

B13: hRBD2 (antibody, V domains shown)
VH: B12 VH with N27Y, L29F, T30S, H32Y, L34I, I57H, T74A, S77T, Q101R
VL: not shown
Turning to B13, the binding result is reported as “binds”.

B14: hRBD6 (antibody, V domains shown)
VH: QVQLQQWGAGLLKPSETLSLSCAVYGGAFSDYYWSWIRQPPGKGLEWIGEIDLSGSTNYNPSLKSRVTISVDTSKNQFSLKLISVTAADTAVYYCARTHLIGYCSGGSCYSGPDPSNWFDPWGQGTLVTVSS
VL: SSELTQDPAVSVALGQTVRITCQGDSLRSYYASWYQQKPGQAPVLVIYGKNNRPSGIPDRFSGSSSGNTASLTITGAQAEDEADYYCNSRDTSGHHPVFGGGTKLTVL
In the case of B14, the binding result is given as “binds”.

B15: mRBD5 (antibody, V domains shown)
VH: QVQLQQPGAELVKPGASVKVSCKASGYTFTSYWMHWVKQRPGQGLEWIGRIHPSDSDTNYNQKFKGKATLTVDKSSSTAYMQLSSLTSEDSAVYYCAIDWDGDYWGQGTTLTVSS
VL: DIVMSQSPSSLAVSAGEKVTMSCKSSQSLLNSRTRKNYLAWYQQKPGQSPKLLIYWASTRESGVPDRFTGSGSGTDFTLTISSVQAEDLAVYYCKQSYNLWTFGGGTKLEIK
Turning to B15, the binding result is on record as “binds”.

B16: mRBD6 (antibody, V domains shown)
VH: B15 VH with I98M, G102V
VL: B15 VL with W101L, G105A, I111L
As to B16, the binding result is “binds”.

B17: hRBD11 (antibody, V domains shown)
VH: QVQLQESGPGLVKPSQTLSLTCTVSGGSISSGGYYWSWIRQHPGKGLEWIGYIFYSGSTYYNPSLKSRVIISVDTSKNQFSLKLSSVTAADTAAYYCARVNRVYGSGSYSLDPWGQGTLVTVSS
VL: QSALTQPASVSGSPGQSITISCTGTSRDVGDYDYVSWYQQHPGKAPKLMIYEGSERPSGVSNRFSGSKSGNTASLTISGLQAEDEADYYCCSYTGSSTSFLFGTGTKVTVL
Regarding B17, the binding result is on record as “binds”.

B18: hRBD10 (antibody, V domains shown)
VH: EVQLVESGGGLVQPGGSLRLSCSASGFTFTTYNMNWVRQAPGKGLEWVSYISSSSSTIYYADSVEGRFTISRDNAKNSLYLQMNSLRDEDTAVYYCARGVGATSYYYHGMDVWGQGTTVSVSS
VL: DIQMTQSPSSLSASVGDRVTITCRASQSIYSYLNWYKQKAGKAPKLLIYAASSLQSGVPSRFSGSGSGTDFTLTIISLQPEDFATYYCQQSYSTPPTFGQGTKVEIK
For B18, the binding result was “binds”.

B19: mRBD14 (antibody, V domains shown)
VH: EVKLVESGGGLVQPGGSLSLSCAASGFTFTDYYMSWVRQPPGKALEWLGFIRNKANGYTTEYSASVKGRFTISRDNSQSILYLQMNALRAEDSATYYCARYIRTGWYFDVWGTGTTVTVSS
VL: DIVMTQSQKFMSTSVRDRVSITCKASQNVRTAVAWYQQKPGQSPKALIYLASNRHTGVPDRFTGSGSGTDFTLTISNVQSEDLADYFCLQHWNYPWTFGGGTKLEIK
Take B19: the binding result was “binds”.

B20: mRBD7 (antibody, V domains shown)
VH: QVQLKQSGAELVRPGASVKLSCKASGYTFTDYYINWVKQRPGQGLEWIARIYPGSGNTYYNEKFKGKATLTAEKSSSTAYMQLSSLTSEDSAVYFCARYPLYDYDEEDYFDYWGQGTTLTVSS
VL: DIQMTQTTSSLSASLGDRVTISCRASQDISNYLNWYQQKPDGTVKLLIYYTSRLHSGVPSRFSGSGSGTDYSLTISNLEQEDIATYFCQQGNTLPYTFGGGTKLEIK
As for B20, the binding result is on record as “binds”.

B21: mRBD17 (antibody, V domains shown)
VH: B3 VH with D10E, F29L, Q46K, S92A, Y103F
VL: B20 VL with I83F
As for B21, the binding result is recorded as “binds”.

B22: mRBD10 (antibody, V domains shown)
VH: QVQLKQSGAELVRPGASVKLSCKASGYTFTDYYINWVKQRPGQGLEWIARIYPGSGNTYYNEKFKGKATLTAEKSSSTAYMQLSSLTSEDSAVYFCARDYGSSYVDYFDYWGQGTTLTVSS
VL: B20 VL with Y96L, G100A, I106L
On to B22, for which the binding result is recorded as “binds”.

B23: mRBD12 (antibody, V domains shown)
VH: QVQLQQSGAELARPGASVKLSCKASGYTFTSYGISWVKQRTGQGLEWIGEIYPRSGNTYYNEKFKGKATLTADKSSSTAYMEVRSLTSEDSAVYFCAREGGYGYVMDYWGQGTSVTVSS
VL: B20 VL with L73F, Y96W
With B23, the binding result is listed as “binds”.

B24: mRBD25 (antibody, V domains shown)
VH: QVQLQQSGPELVKPGASVKISCKASGYAFSNSWMNWVKQRPGKGLEWIGRIYPGDGDTNYNGKFKGKATLTADKSSSTAYMQLSSLTSEDSAVYFCANYYGDYWGQGTTLTVSS
VL: QIVLTQSPALMSASPGEKVTMTCSASSSVSYMYWYQQKPRSSPKPWIYLTSNLASGVPARFSGSGSGTSYSLTISSMEAEDAATYYCQQWSSNPYTFGGGTKLEIK
B24: the binding result is recorded as “binds”.

B25: mRBD18 (antibody, V domains shown)
VH: QIQLVQSGPELKKPGETVKISCKASGYTFTDYPMHWVQQAPGKGFKWMGMIYTDTGEPTYAEEFKGRFAFSLETSASTAYLQINNLKNEDTATYFCVRWAGYFDYWGQGTTLTVSS
VL: DIVLTQSPASLAVSLGQRATISCRASESVDSYGNSFMDWYQQKPGQPPKLLIYRASNLESGIPARFSGSGSRTDFTLIINPVEADDVATYYCQQSNEHPLTFGAGTKLELK
With B25, the binding result is “binds”.
